Results from paper PMC5424357.

Columns and labels:
Test in all cases: purified protein
Details in all cases: optimal conditions (optimum pH 8.0, 30 °C), substrate range stated 0.2–2.4 mM
[1] = tested on: COC(=O)[C@@H](C)Oc1ccc(Oc2ncc(C(F)(F)F)cc2Cl)cc1
[2] = tested on: C#CCOC(=O)[C@@H](C)Oc1ccc(Oc2ncc(Cl)cc2F)cc1
[3] = tested on: CCOC(=O)[C@@H](C)Oc1ccc(Oc2nc3ccc(Cl)cc3o2)cc1
[4] = tested on: C[C@@H](Oc1ccc(Oc2cnc3cc(Cl)ccc3n2)cc1)C(=O)OCC1CCCO1
[5] = tested on: CCCCOC(=O)[C@@H](C)Oc1ccc(Oc2ccc(C#N)cc2F)cc1

**Q.** QpeH (Pseudomonas sp.) was tested. Which Km [1] did it give?
**A.** Its Km is 113.9 ± 3.8 µM.

**Q.** What about the kcat [1] of the same substance?
**A.** The kcat was 67.4 ± 2.6 s⁻¹.

**Q.** What about the kcat/Km [1] of the same substance?
**A.** The kcat/Km was 590000 ± 40000 M⁻¹ s⁻¹.

**Q.** And the Km [2]?
**A.** The Km was 174.0 ± 4.2 µM.

**Q.** What about the kcat [2] of the same substance?
**A.** The kcat was 37.1 ± 2.9 s⁻¹.

**Q.** What about the kcat/Km [2] of the same substance?
**A.** Its kcat/Km is 210000 ± 20000 M⁻¹ s⁻¹.

**Q.** What about the Km [3] of the same substance?
**A.** Its Km is 26.9 ± 4.3 µM.

**Q.** And the kcat [3]?
**A.** The kcat was 162 ± 3.4 s⁻¹.

**Q.** What about the kcat/Km [3] of the same substance?
**A.** Its kcat/Km is 6.01e+06 ± 50000 M⁻¹ s⁻¹.

**Q.** And the Km [4]?
**A.** Its Km is 29.5 ± 2.7 µM.

**Q.** What about the kcat [4] of the same substance?
**A.** Its kcat is 146 ± 3.3 s⁻¹.

**Q.** And the kcat/Km [4]?
**A.** The kcat/Km was 4.96e+06 ± 90000 M⁻¹ s⁻¹.

**Q.** And the Km [5]?
**A.** Its Km is 158.2 ± 3.5 µM.

**Q.** What about the kcat [5] of the same substance?
**A.** Its kcat is 41.1 ± 4.1 s⁻¹.

**Q.** And the kcat/Km [5]?
**A.** Its kcat/Km is 260000 ± 30000 M⁻¹ s⁻¹.
